Patent US20230203177A1 (Bristol-Myers Squibb, published 2023)
Changes are numbered by the printed parent chain. Names may count otherwise.

B1: M60 (HC-R57E,K74Q / LC-K45Q,R54Q,R61Q) (antibody, human IgG1, kappa, V domains shown)
VH: QVQLVQSGAEVKKPGSSVKVSCKASGYAFTSYWMHWVRQAPGQGLEWMGQINPTTGESQYNEKFKTRVTITADQSTSTAYMELSSLRSEDTAVYYCARWGLQPFAYWGQGTLVTVSS
VL: DIQMTQSPSFLSASVGDRVTITCKASQDVSTAVAWYQQKPGKAPQLLIYSASYQYTGVPSQFSGSGSGTDFTLTISSLQPEDFATYYCQQHYSTPWTFGGGTKVEIKR
notes: IgG1-P238K; also called HC12/LC4
B2: M67 (HC-K12Q,K13Q,K23Q / LC-R61Q) (antibody, human IgG1, kappa, V domains shown)
VH: B1 VH with K12Q, K13Q, K23Q, E57R, Q74K
VL: B1 VL with Q45K, Q54R
notes: IgG1-P238K; also called HC3/LC5
B3: M82 (HC-K12Q,K13Q / LC-K107Q,R108Q) (antibody, human IgG1, kappa)
heavy: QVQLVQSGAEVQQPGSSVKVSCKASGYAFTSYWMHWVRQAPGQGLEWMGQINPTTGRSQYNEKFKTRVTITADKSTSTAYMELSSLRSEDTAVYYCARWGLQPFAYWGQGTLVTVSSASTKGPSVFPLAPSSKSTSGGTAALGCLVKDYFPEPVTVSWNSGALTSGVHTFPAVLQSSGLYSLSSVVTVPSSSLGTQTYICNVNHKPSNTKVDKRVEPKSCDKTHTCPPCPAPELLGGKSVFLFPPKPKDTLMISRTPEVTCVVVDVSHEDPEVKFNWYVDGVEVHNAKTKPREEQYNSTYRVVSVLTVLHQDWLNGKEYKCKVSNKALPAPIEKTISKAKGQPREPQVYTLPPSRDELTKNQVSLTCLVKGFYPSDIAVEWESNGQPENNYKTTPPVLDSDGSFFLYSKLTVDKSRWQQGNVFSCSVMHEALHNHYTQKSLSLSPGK
light: DIQMTQSPSFLSASVGDRVTITCKASQDVSTAVAWYQQKPGKAPKLLIYSASYRYTGVPSRFSGSGSGTDFTLTISSLQPEDFATYYCQQHYSTPWTFGGGTKVEIQQTVAAPSVFIFPPSDEQLKSGTASVVCLLNNFYPREAKVQWKVDNALQSGNSQESVTEQDSKDSTYSLSSTLTLSKADYEKHKVYACEVTHQGLSSPVTKSFNRGEC
notes: IgG1-P238K; also called HC2/LC6
B4: M64 (HC-K63Q / LC-K45Q,R54Q,R61Q) (antibody, human IgG1, kappa, V domains shown)
VH: B1 VH with E57R, K63Q, Q74K
VL: B1 VL
notes: IgG1-P238K; also called HC16/LC4
B5: M89 (HC-K63Q,R67E / LC-K107Q,R108Q) (antibody, human IgG1, kappa)
heavy: not shown
light: B3 light
notes: IgG1-P238K; also called HC9/LC6
B6: M76 (HC-R57E,K74Q / LC-R61Q) (antibody, human IgG1, kappa, V domains shown)
VH: B1 VH
VL: B1 VL with Q45K, Q54R
notes: IgG1-P238K; also called HC12/LC5
B7: M69 (HC-K12E,K13Q,K23E / LC-R61Q) (antibody, human IgG1, kappa)
heavy: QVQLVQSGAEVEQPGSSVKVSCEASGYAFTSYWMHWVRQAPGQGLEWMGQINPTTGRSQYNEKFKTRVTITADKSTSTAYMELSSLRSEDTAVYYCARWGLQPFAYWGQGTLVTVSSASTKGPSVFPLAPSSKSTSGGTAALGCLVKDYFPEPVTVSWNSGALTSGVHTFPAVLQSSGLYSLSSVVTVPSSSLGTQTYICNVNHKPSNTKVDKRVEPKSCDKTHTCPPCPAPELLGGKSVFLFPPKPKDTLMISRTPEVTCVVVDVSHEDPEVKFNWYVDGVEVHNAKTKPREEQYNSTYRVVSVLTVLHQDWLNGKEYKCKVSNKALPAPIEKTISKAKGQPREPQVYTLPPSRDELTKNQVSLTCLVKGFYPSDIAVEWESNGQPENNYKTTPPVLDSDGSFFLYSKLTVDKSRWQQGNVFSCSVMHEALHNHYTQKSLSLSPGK
light: B3 light with R61Q, Q107K, Q108R
notes: IgG1-P238K; also called HC5/LC5
B8: M90 (HC-R67E / LC-K107Q,R108Q) (antibody, human IgG1, kappa)
heavy: not shown
light: B3 light
notes: IgG1-P238K; also called HC10/LC6
B9: M95 (HC-R67Q / LC-K107Q,R108Q) (antibody, human IgG1, kappa)
heavy: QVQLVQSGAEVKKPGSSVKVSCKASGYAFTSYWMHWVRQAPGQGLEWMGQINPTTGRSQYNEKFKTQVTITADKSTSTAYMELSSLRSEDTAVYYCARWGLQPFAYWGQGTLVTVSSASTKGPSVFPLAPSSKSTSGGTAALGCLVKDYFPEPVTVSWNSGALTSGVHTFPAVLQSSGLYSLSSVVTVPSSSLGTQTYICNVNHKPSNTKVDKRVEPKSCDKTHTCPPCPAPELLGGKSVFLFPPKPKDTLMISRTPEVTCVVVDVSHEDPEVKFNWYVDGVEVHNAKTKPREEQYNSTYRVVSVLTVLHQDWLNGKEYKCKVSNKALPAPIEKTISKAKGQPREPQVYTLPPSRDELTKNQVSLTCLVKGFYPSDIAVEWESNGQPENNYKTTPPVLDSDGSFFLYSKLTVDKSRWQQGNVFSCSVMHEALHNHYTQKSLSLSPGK
light: B3 light
notes: IgG1-P238K; also called HC15/LC6
B10: M93 (HC-E46K,E62K / LC-K107Q,R108Q) (antibody, human IgG1, kappa)
heavy: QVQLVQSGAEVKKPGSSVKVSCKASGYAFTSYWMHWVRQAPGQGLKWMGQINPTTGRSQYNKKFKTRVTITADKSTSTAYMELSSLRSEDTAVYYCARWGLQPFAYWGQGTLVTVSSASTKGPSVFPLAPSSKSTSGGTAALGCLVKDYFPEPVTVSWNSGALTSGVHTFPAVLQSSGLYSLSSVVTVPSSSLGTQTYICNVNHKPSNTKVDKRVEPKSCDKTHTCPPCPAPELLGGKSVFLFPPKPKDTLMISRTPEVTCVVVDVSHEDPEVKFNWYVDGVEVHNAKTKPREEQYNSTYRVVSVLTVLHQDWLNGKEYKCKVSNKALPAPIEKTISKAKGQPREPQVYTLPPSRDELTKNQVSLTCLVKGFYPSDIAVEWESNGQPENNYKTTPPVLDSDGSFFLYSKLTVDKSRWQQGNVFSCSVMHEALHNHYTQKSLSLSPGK
light: B3 light
notes: IgG1-P238K; also called HC13/LC6
B11: M61 (HC-E46K,E62K / LC-K45Q,R54Q,R61Q) (antibody, human IgG1, kappa, V domains shown)
VH: B1 VH with E46K, E57R, E62K, Q74K
VL: B1 VL
notes: IgG1-P238K; also called HC13/LC4
B12: M79 (HC-R67Q / LC-R61Q) (antibody, human IgG1, kappa, V domains shown)
VH: B1 VH with E57R, R67Q, Q74K
VL: B1 VL with Q45K, Q54R
notes: IgG1-P238K; also called HC15/LC5
B13: M75 (HC-R57E / LC-R61Q) (antibody, human IgG1, kappa, V domains shown)
VH: B1 VH with Q74K
VL: B1 VL with Q45K, Q54R
notes: IgG1-P238K; also called HC11/LC5
B14: M71 (HC-K23E / LC-R61Q) (antibody, human IgG1, kappa)
heavy: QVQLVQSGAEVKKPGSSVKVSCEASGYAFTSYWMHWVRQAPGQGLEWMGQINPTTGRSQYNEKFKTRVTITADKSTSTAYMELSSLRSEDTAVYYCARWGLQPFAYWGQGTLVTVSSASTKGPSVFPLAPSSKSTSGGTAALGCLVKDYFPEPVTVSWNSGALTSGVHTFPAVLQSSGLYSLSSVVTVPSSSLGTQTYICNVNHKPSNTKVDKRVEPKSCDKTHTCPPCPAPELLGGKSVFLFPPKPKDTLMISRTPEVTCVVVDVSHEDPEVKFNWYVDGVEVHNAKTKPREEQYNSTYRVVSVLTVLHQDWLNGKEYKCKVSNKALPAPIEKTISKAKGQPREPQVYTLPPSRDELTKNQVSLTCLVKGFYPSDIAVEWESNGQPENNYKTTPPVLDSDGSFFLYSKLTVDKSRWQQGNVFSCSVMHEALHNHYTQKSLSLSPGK
light: B3 light with R61Q, Q107K, Q108R
notes: IgG1-P238K; also called HC7/LC5
B15: M84 (HC-K12E / LC-K107Q,R108Q) (antibody, human IgG1, kappa)
heavy: not shown
light: B3 light
notes: IgG1-P238K; also called HC4/LC6
B16: M70 (HC-K12V,K19S,K23A / LC-R61Q) (antibody, human IgG1, kappa, V domains shown)
VH: B1 VH with K12V, K19S, K23A, E57R, Q74K
VL: B1 VL with Q45K, Q54R
notes: IgG1-P238K; also called HC6/LC5
B17: M88 (HC-R38Q,K63Q,R67Q / LC-K107Q,R108Q) (antibody, human IgG1, kappa)
heavy: not shown
light: B3 light
notes: IgG1-P238K; also called HC8/LC6
B18: M94 (HC-K74T / LC-K107Q,R108Q) (antibody, human IgG1, kappa)
heavy: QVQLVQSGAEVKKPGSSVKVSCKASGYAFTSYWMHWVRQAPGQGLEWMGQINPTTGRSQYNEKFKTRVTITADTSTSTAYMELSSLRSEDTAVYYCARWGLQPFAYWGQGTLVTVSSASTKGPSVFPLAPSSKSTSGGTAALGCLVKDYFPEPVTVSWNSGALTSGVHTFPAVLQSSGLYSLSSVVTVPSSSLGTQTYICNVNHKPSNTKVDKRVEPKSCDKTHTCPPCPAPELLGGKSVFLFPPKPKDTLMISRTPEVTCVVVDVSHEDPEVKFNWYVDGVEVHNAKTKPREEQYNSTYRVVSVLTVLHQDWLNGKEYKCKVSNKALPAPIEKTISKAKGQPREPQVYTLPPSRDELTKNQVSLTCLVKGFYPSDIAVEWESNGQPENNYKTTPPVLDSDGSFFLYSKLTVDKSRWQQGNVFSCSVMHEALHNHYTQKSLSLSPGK
light: B3 light
notes: IgG1-P238K; also called HC14/LC6
B19: M96 (HC-K63Q / LC-K107Q,R108Q) (antibody, human IgG1, kappa)
heavy: not shown
light: B3 light
notes: IgG1-P238K; also called HC16/LC6
B20: M74 (HC-R67E / LC-R61Q) (antibody, human IgG1, kappa, V domains shown)
VH: B1 VH with E57R, R67E, Q74K
VL: B1 VL with Q45K, Q54R
notes: IgG1-P238K; also called HC10/LC5
B21: M66 (HC-K12Q,K13Q / LC-R61Q) (antibody, human IgG1, kappa)
heavy: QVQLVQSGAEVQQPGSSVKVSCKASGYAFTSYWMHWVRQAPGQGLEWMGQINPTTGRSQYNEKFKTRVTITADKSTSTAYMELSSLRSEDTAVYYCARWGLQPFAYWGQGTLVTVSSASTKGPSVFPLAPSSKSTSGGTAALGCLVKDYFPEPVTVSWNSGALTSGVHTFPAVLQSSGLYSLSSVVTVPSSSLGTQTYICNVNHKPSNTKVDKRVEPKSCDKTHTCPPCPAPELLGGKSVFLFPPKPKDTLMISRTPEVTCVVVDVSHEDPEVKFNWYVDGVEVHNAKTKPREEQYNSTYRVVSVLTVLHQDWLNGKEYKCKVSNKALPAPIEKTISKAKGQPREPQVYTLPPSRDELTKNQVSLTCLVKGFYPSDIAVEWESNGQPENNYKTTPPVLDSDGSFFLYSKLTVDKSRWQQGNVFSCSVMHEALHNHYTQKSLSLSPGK
light: B3 light with R61Q, Q107K, Q108R
notes: IgG1-P238K; also called HC2/LC5
B22: M78 (HC-K74T / LC-R61Q) (antibody, human IgG1, kappa, V domains shown)
VH: B1 VH with E57R, Q74T
VL: B1 VL with Q45K, Q54R
notes: IgG1-P238K; also called HC14/LC5
B23: M86 (HC-K12V,K19S,K23A / LC-K107Q,R108Q) (antibody, human IgG1, kappa)
heavy: not shown
light: B3 light
notes: IgG1-P238K; also called HC6/LC6
B24: M68 (HC-K12E / LC-R61Q) (antibody, human IgG1, kappa)
heavy: not shown
light: B3 light with R61Q, Q107K, Q108R
notes: IgG1-P238K; also called HC4/LC5
B25: M65 (HC-wt / LC-R61Q) (antibody, human IgG1, kappa)
heavy: not shown
light: B3 light with R61Q, Q107K, Q108R
notes: IgG1-P238K; also called HC1/LC5
B26: M73 (HC-K63Q,R67E / LC-R61Q) (antibody, human IgG1, kappa, V domains shown)
VH: B1 VH with E57R, K63Q, R67E, Q74K
VL: B1 VL with Q45K, Q54R
notes: IgG1-P238K; also called HC9/LC5
B27: M87 (HC-K23E / LC-K107Q,R108Q) (antibody, human IgG1, kappa)
heavy: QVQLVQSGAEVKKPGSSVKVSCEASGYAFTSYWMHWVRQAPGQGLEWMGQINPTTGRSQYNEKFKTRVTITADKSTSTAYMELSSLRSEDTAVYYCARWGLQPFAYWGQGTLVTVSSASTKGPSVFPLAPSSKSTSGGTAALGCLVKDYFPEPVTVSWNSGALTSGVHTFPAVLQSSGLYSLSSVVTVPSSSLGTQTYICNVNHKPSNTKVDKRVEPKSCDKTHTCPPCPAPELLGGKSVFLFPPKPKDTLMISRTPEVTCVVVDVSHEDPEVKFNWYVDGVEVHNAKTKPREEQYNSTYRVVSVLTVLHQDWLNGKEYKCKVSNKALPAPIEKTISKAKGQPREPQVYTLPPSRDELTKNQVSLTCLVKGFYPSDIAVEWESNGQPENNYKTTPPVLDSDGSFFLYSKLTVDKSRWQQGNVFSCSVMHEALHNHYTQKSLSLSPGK
light: B3 light
notes: IgG1-P238K; also called HC7/LC6
B28: M91 (HC-R57E / LC-K107Q,R108Q) (antibody, human IgG1, kappa)
heavy: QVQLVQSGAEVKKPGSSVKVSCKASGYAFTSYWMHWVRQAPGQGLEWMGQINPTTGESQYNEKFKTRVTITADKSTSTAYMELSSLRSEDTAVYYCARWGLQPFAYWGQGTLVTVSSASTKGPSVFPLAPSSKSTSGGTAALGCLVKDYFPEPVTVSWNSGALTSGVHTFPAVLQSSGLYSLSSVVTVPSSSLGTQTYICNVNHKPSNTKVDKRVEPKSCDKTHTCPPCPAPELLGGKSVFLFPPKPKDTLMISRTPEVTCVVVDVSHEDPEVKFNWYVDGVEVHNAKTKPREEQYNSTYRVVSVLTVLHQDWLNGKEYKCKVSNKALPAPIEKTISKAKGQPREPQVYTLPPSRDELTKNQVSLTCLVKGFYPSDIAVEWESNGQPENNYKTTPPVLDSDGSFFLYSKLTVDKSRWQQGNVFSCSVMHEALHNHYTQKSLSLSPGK
light: B3 light
notes: IgG1-P238K; also called HC11/LC6
B29: M85 (HC-K12E,K13Q,K23E / LC-K107Q,R108Q) (antibody, human IgG1, kappa)
heavy: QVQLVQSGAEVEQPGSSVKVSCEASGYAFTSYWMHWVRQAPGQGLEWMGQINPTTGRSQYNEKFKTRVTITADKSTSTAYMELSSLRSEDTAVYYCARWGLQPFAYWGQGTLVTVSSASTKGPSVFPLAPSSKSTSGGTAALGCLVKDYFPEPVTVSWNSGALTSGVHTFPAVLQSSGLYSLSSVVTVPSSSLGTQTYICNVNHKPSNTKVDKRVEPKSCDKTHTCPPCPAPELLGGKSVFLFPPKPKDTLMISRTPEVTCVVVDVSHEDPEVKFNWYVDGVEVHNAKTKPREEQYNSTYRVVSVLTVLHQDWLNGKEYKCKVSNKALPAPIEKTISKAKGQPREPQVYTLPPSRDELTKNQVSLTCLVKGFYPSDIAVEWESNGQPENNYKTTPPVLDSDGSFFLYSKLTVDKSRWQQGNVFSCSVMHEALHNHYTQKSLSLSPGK
light: B3 light
notes: IgG1-P238K; also called HC5/LC6
B30: M72 (HC-R38Q,K63Q,R67Q / LC-R61Q) (antibody, human IgG1, kappa, V domains shown)
VH: B1 VH with R38Q, E57R, K63Q, R67Q, Q74K
VL: B1 VL with Q45K, Q54R
notes: IgG1-P238K; also called HC8/LC5
B31: M92 (HC-R57E,K74Q / LC-K107Q,R108Q) (antibody, human IgG1, kappa)
heavy: not shown
light: B3 light
notes: IgG1-P238K; also called HC12/LC6
B32: M77 (HC-E46K,E62K / LC-R61Q) (antibody, human IgG1, kappa, V domains shown)
VH: B1 VH with E46K, E57R, E62K, Q74K
VL: B1 VL with Q45K, Q54R
notes: IgG1-P238K; also called HC13/LC5
B33: M83 (HC-K12Q,K13Q,K23Q / LC-K107Q,R108Q) (antibody, human IgG1, kappa)
heavy: not shown
light: B3 light
notes: IgG1-P238K; also called HC3/LC6

Target: T1, soluble human CD40 extracellular domain (human, UniProt P25942 21-193)
T1 construct: Produced in house; also called hCD40; soluble hCD40 extracellular domain
Experiment: SPR, Ab captured from supernatant on protein A, hCD40 ECD analyte
Description: The titer data (Table 21) were used to normalize the antibody concentration in each supernatant to 3 μg/ml, and these antibodies were captured out of the supernatants on a protein A CMS Series S sensor chip (GE Healthcare), and tested for binding to two concentrations (5 nM and 50 nM) of soluble hCD40 extracellular domain.
CD40 binding SPR of antibody supernatants: Surface plasmon resonance (SPR) studies were conducted on a BIAcore™ T200 instrument (GE Healthcare, Chicago Ill.). A Series S Protein A sensor chip (GE Healthcare, Chicago Ill.) was equilibrated with SPR running buffer of 10 mM NaPO₄, 130 mM NaCl, 0.05% tween 20, (PBS-T) pH 7.2 at 25° C. The 96 antibody supernatants were normalized to a concentration of 3 μg/ml by diluting with PBS-T using a PerkinElmer JANUS® G3 system (PerkinElmer, Akron, Ohio). After priming the system, the 3 μg/ml antibody samples were captured on the protein A surface for 30 s at 10 μl/min Binding of 50 nM and 500 nM human CD40 extracellular domain (produced in house) was evaluated using association time of 180 s at 30 μl/min, followed by a dissociation time of 180 s at 30 μl/min Regeneration between cycles was accomplished using two 15 s injections of 10 mM glycine pH 1.5. […] Data were analyzed using BIAcore™ T200 evaluation software by fitting to a 1:1 Langmuir model.

T1 sequence (P25942 21-193 limits assumed): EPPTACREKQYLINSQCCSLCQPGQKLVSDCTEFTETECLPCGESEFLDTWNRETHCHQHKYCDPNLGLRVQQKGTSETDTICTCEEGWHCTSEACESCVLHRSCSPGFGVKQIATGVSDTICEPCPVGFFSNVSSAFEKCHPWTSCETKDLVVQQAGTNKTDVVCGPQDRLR

Binder	Kd [nM]
B1	14.7
B2	3.6
B3	3.2
B4	3.3
B5	3.3
B6	14.8
B7	3.8
B8	3
B9	3.4
B10	8.1
B11	7.5
B12	3.5
B13	10.5
B14	4.4
B15	3.3
B16	3.5
B17	3.2

Binder	Kd [nM]
B18	3.6
B19	3.9
B20	2.9
B21	3.6
B22	4
B23	3.7
B24	3.6
B25	4.3
B26	3
B27	4.3
B28	9.6
B29	3.3
B30	2.9
B31	13.4
B32	7.9
B33	3.6
